From patent US12576138B2, “Compounds and methods for the immobilization of myostatin-inhibitors on the extracellular matrix by transglutaminase” (JULIUS-MAXIMILIANS-UNIVERSITÄT WÜRZBURG, priority 2018, dated 2026)
One block for each substance: values may come before it.

Columns and labels:
fibronectin = target: T1, fibronectin (Mus musculus, UniProt P11276); assay: FXIIIa-mediated immobilization of MI-D chain on decellularized cell-derived ECM; format: biochemical
T1 construct: The ECM was produced by NIH3T3 fibroblasts and on day 6 decellularized; endogenous in cells; host or cells: NIH3T3 fibroblasts (decellularized ECM)
T1 sequence (P11276 33-2477): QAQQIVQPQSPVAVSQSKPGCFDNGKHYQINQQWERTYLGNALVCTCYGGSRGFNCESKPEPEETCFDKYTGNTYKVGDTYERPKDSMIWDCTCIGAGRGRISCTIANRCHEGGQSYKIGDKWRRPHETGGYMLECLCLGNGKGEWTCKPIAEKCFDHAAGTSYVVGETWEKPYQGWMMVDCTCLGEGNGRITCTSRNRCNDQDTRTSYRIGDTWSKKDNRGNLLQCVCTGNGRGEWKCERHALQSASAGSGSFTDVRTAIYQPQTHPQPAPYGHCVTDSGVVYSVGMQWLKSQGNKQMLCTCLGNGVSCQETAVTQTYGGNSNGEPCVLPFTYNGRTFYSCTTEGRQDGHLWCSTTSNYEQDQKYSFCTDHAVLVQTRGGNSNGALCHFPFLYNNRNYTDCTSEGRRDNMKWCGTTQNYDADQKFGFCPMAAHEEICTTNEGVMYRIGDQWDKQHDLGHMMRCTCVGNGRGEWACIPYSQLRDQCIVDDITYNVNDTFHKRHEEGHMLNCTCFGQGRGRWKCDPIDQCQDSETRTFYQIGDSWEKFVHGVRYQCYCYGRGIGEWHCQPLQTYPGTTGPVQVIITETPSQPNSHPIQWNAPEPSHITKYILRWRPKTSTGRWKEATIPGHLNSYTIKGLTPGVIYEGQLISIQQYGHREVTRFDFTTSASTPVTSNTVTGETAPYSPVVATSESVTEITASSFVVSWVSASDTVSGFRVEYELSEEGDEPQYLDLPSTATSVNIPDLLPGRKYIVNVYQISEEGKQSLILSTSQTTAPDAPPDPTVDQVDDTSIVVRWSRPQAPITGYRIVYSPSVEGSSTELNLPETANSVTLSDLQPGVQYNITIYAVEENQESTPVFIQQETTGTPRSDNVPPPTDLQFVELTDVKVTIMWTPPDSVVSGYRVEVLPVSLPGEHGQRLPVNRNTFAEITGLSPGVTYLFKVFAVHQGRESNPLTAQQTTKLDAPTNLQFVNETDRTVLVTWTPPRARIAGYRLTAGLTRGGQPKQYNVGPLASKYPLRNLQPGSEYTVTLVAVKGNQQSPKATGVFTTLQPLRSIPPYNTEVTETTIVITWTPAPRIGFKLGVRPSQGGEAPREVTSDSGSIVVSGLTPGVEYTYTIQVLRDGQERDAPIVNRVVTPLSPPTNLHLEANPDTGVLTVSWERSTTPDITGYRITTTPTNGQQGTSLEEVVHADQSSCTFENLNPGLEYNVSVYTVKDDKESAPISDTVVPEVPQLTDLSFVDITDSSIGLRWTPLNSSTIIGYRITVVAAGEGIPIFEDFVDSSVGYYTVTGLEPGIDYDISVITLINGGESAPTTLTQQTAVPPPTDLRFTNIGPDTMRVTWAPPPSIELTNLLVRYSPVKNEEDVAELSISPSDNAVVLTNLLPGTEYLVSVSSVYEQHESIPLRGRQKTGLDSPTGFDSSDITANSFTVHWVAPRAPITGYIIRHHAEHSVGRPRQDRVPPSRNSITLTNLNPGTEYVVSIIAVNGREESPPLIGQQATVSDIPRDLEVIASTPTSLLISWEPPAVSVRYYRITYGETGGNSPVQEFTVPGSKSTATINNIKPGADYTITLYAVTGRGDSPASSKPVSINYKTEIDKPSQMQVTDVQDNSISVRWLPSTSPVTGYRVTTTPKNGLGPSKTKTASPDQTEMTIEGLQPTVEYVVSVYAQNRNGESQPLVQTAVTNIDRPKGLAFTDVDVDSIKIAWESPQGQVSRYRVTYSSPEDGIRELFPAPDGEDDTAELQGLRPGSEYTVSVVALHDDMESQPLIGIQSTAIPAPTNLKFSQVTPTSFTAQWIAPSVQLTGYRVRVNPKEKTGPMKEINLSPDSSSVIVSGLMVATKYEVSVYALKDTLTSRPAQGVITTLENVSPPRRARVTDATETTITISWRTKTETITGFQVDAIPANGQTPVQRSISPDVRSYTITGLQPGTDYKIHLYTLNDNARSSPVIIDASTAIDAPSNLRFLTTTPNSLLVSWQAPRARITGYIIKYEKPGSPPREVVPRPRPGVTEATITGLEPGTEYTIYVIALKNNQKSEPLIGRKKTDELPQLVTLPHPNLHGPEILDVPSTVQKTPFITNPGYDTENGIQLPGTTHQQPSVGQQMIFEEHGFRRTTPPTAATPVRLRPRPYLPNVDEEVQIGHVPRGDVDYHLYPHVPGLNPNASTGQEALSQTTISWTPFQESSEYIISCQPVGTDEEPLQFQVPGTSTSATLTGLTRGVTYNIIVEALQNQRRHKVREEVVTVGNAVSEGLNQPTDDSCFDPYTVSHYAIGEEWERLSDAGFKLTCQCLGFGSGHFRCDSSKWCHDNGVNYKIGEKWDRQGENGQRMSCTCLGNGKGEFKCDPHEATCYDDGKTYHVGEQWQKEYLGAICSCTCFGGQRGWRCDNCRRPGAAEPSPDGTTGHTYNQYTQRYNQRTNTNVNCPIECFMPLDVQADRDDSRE
Excerpt: As proof of concept, the MI with TG tag (“MI-D chain”) was immobilized onto cell derived, isolated extracellular matrix (ECM). The ECM was produced by NIH3T3 fibroblasts and on day 6 decellularized and washed to remove cell debris and adsorbed proteins.
(§1) MI-D chains were immobilized on ECM with high efficacy (FIG. 4A) and the co-localization with fibronectin confirmed using confocal laser scanning microscopy (FIG. 4B). Bioactivity of immobilized MI was confirmed by capturing myostatin using ELISA and consequently the restoration of mouse myoblast cells to differentiate in presence of myostatin (FIG. 4C, D).
(§2) FIG. 4: Immobilization of the MI-D chain on decellularized ECM. (A) Coupling efficacy in presence and absence of TG. (B) Confocal Laser Scanning Microscopy images of MI labeled with Atto594-maleimide on ECM in presence (panels A) and absence (panels B) of FXIIIa. […] (C) Amount of free myostatin after exposure to ECM with immobilized MI under different conditions measured by ELISA. (D) Bioactivity of MI immobilized on ECM determined by differentiation of myoblasts in presence of myostatin-containing medium and MI bound on ECM in presence or absence of TG.

mouse myoblast cells = assay: Differentiation of myoblasts in presence of myostatin and MI bound on ECM; format: cell-based; details: MI immobilized on ECM
Excerpt: as §1, §2

myostatin [1] = target: T2, myostatin (Homo sapiens, UniProt O14793); assay: Capture of myostatin by ECM-immobilized MI, measured by ELISA; format: binding
T2 sequence (O14793 267-375): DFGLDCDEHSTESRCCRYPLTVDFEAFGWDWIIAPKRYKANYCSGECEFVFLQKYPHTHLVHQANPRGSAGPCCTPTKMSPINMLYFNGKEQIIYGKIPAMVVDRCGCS
Excerpt: as §1, §2

[2] = target: glutamine substrate derived from α-2 plasmin inhibitor (Homo sapiens, UniProt P08697); assay: Transglutaminase coupling of the isolated IGF-I D chain to a glutamine substrate; format: biochemical
Experimental: Starting off by examination of the specificity and efficacy of the IGF-I D chain, the isolated sequence (PLKPAKSA) was coupled to a glutamine substrate derived from α-2 plasmin inhibitor, achieving >90% conversion within less than 10 minutes.

myostatin [3] = target: T2, myostatin; assay: Bioactivity of released MI: myoblast proliferation in presence of myostatin; format: cell-based; details: after release from ECM triggered by MMPs
Excerpt: If a flaring inflammation in the wounded tissue occurs, accompanied by invasion of macrophages and release of MMPs, the inter-positioned PCL is cleaved, releasing the MI and instantly inhibiting the flaring inflammation and preventing apoptosis of surrounding cartilage and muscle cells.
FIG. 5: (A) Release kinetics of MI modified with a PCL—responding to elevated MMP levels—and the D chain for immobilization on ECM (“MI1”) in comparison to MI modified with the D chain at the C-terminus for direct immobilization on ECM (“MI2”). The MI was labelled with a fluorescent dye before immobilization on the ECM and the release of MI exposed to MMP-1, -8, -9 and -13 for different periods of time was analyzed by HPLC with fluorescence detection. (B) Bioactivity of released MI determined by myoblast proliferation in presence of myostatin and MI after release from ECM triggered by MMPs.

co-localization with fibronectin (fibronectin; confocal laser scanning microscopy): confirmed | efficacy of immobilization on ECM (fibronectin; decellularized ECM from NIH3T3 fibroblasts, FXIIIa): high efficacy | bioactivity of immobilized MI by capturing myostatin (myostatin [1]; ELISA, MI immobilized on ECM): confirmed | capacity to bind and inhibit myostatin after immobilization on N-terminus of fibronectin (myostatin [1]; immobilized on ECM): without impairment
Substance: MI-D chain: myostatin inhibitor with the IGF-I D chain attached at the C-terminus for direct immobilization on ECM (VATQGQCTRWPWMCPPQGWGPLKPAKSA)
differentiation of mouse myoblast cells in presence of myostatin (mouse myoblast cells): restoration

time to reach >90% conversion ([2]; coupling to glutamine substrate derived from α-2 plasmin inhibitor): less than 10 minutes | conversion (coupling to glutamine substrate) ([2]; within less than 10 minutes): > 90%
Substance: PLKPAKSA (listed as Homo sapiens) [IGF-I D chain]

bioactivity of released MI in terms of myostatin inhibition (myostatin [3]): bioactive
Substance: VATQGQCTRWPWMCPPQGWG (listed as Homo sapiens) [MI, in b165 the MI released from ECM by MMPs]
